PMC12881670, “Investigation into ligand selectivity and bias at the formyl peptide receptor family” (The Journal of Pharmacology and Experimental Therapeutics, 2025)

Tests used:
[1] = target: T1, FLAG-Hs_FPR1 C-terminally fused to Renilla Luciferase 8 (human, UniProt P21462 1-350); assay: cell-based or functional assay
T1 sequence (looked up): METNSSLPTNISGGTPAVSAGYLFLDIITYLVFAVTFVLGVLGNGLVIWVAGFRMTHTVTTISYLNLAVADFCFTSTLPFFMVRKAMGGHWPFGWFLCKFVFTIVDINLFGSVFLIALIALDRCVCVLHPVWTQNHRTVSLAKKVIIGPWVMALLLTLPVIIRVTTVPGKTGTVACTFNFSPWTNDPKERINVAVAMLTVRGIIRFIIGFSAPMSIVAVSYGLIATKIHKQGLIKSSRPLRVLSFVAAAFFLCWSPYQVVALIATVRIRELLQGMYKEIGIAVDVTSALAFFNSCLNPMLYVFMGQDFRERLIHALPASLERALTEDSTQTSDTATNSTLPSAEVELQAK

[2] = target: T2, FLAG-Hs_FPR2 C-terminally fused to Renilla Luciferase 8 (human, UniProt P25090 1-351); assay: cell-based or functional assay
T2 sequence (looked up): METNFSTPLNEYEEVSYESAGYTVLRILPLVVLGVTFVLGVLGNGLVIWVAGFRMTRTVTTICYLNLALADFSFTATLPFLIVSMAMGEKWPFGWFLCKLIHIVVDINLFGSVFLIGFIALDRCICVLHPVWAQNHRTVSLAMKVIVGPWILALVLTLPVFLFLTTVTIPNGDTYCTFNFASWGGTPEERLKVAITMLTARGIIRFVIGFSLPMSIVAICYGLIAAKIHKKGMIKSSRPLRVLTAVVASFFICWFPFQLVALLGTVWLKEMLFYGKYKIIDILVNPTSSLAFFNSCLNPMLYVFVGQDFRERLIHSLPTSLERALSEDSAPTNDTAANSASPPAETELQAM

[3] = target: T3, FLAG-Mm_Fpr1 C-terminally fused to Renilla Luciferase 8 (mouse, UniProt P33766 1-364); assay: cell-based or functional assay
T3 sequence (looked up): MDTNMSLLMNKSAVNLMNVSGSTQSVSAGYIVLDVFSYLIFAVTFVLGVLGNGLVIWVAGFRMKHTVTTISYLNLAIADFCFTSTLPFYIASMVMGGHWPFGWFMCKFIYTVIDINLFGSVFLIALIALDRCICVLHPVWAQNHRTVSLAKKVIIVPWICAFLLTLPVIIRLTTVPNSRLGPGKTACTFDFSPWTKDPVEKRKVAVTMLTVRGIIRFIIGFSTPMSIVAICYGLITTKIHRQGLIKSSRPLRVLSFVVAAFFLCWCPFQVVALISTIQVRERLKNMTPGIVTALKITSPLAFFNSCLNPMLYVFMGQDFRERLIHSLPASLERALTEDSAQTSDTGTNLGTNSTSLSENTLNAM

[4] = target: T4, FLAG-Mm_Fpr2 C-terminally fused to Renilla Luciferase 8 (mouse, UniProt O88536 1-351); assay: cell-based or functional assay
T4 sequence (looked up): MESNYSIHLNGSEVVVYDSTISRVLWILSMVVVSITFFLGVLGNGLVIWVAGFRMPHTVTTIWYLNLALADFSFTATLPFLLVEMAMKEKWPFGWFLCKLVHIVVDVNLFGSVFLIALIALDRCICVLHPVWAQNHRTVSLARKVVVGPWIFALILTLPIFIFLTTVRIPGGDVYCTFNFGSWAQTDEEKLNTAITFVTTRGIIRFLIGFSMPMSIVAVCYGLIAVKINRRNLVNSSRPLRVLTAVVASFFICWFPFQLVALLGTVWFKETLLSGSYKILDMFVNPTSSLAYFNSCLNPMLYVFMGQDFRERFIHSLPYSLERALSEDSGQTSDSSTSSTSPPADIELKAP

[5] = target: T5, FLAG-tagged mouse Fpr1 (Mm_Fpr1) (mouse, UniProt P33766 1-364); assay: cell-based or functional assay
T5 sequence (looked up): T3 sequence (looked up)

[6] = target: T6, FLAG-tagged mouse Fpr2 (Mm_Fpr2) (mouse, UniProt O88536 1-351); assay: cell-based or functional assay
T6 sequence (looked up): T4 sequence (looked up)

[7] = target: T7, FLAG-tagged human FPR1 (Hs_FPR1) (human, UniProt P21462 1-350); assay: cell-based or functional assay
T7 sequence (looked up): T1 sequence (looked up)

[8] = target: T8, FLAG-tagged human FPR2 (Hs_FPR2) (human, UniProt P25090 1-351); assay: cell-based or functional assay
T8 sequence (looked up): T2 sequence (looked up)

[9] = target: T1, FLAG-Hs_FPR1 C-terminally fused to …; assay: cell-based or functional assay; remark: listed apart in the source
[10] = target: T2, FLAG-Hs_FPR2 C-terminally fused to …; assay: cell-based or functional assay; remark: listed apart in the source
[11] = target: T3, FLAG-Mm_Fpr1 C-terminally fused to …; assay: cell-based or functional assay; remark: listed apart in the source
[12] = target: T4, FLAG-Mm_Fpr2 C-terminally fused to …; assay: cell-based or functional assay; remark: listed apart in the source
[13] = target: T5, FLAG-tagged mouse Fpr1 (Mm_Fpr1); assay: cell-based or functional assay; remark: listed apart in the source
[14] = target: T6, FLAG-tagged mouse Fpr2 (Mm_Fpr2); assay: cell-based or functional assay; remark: listed apart in the source
[15] = target: T7, FLAG-tagged human FPR1 (Hs_FPR1); assay: cell-based or functional assay; remark: listed apart in the source
[16] = target: T8, FLAG-tagged human FPR2 (Hs_FPR2); assay: cell-based or functional assay; remark: listed apart in the source
[17] = target: T5, FLAG-tagged mouse Fpr1 (Mm_Fpr1); assay: flow cytometry on cells; competition binding: HEK293 cells stably expressing the receptor, lifted in PBS, on ice 90 min with 10 nM K(5/6-FAM)-WKYMVm and increasing unlabeled ligand; mean fluorescence of 5000 cells as % of that without competitor; One site-Fit logIC50
[18] = target: T6, FLAG-tagged mouse Fpr2 (Mm_Fpr2); assay: as above
[19] = target: T7, FLAG-tagged human FPR1 (Hs_FPR1); assay: as above
[20] = target: T8, FLAG-tagged human FPR2 (Hs_FPR2); assay: as above

B1: WKYMVM (peptide)
peptide: WKYMVM
notes: synthetic hexapeptide, all L residues; also called L-enantiomer of WKYMVm; source: bought: Tocris
- BRET of receptor-RLuc8 with Venus-mGsi: Emax (% of 1 μM WKYMVm) [1]: 44.1%
- BRET of receptor-RLuc8 with Venus-mGsi: Emax (% of 1 μM WKYMVm) [2]: 79.2%
- BRET of receptor-RLuc8 with Venus-mGsi: Emax (% of 1 μM WKYMVm) [3]: 37.5%
- BRET of receptor-RLuc8 with Venus-mGsi: Log EC50 (M) [3]: -5.68 log M
- BRET of receptor-RLuc8 with Venus-mGsi: Emax (% of 1 μM WKYMVm) [4]: 87.9%
- BRET of receptor-RLuc8 with Venus-mGsi: Log EC50 (M) [4]: -6.49 log M
- ERK1/2 phosphorylation (Western blot): Emax (% of 1 μM WKYMVm) [5]: 118%
- ERK1/2 phosphorylation (Western blot): Log EC50 (M) [5]: -7.08 log M
- ERK1/2 phosphorylation (Western blot): Emax (% of 1 μM WKYMVm) [6]: 128%
- ERK1/2 phosphorylation (Western blot): Log EC50 (M) [6]: -7.91 log M
- ERK1/2 phosphorylation (Western blot): Emax (% of 1 μM WKYMVm) [7]: 141%
- ERK1/2 phosphorylation (Western blot): Emax (% of 1 μM WKYMVm) [8]: 125%
- BRET of receptor-RLuc8 with Arrestin 3-YFP: Emax (% of 1 μM WKYMVm) [9]: 75%
- BRET of receptor-RLuc8 with Arrestin 3-YFP: Emax (% of 1 μM WKYMVm) [10]: 94.8%
- BRET of receptor-RLuc8 with Arrestin 3-YFP: Emax (% of 1 μM WKYMVm) [11]: 83.1%
- BRET of receptor-RLuc8 with Arrestin 3-YFP: Log EC50 (M) [11]: -5.56 log M
- BRET of receptor-RLuc8 with Arrestin 3-YFP: Emax (% of 1 μM WKYMVm) [12]: 94.3%
- BRET of receptor-RLuc8 with Arrestin 3-YFP: Log EC50 (M) [12]: -6.59 log M
- receptor internalization (flow cytometry): Emax (% of 1 μM WKYMVm) [13]: 99.4%
- receptor internalization (flow cytometry): Log EC50 (M) [13]: -6.29 log M
- receptor internalization (flow cytometry): Emax (% of 1 μM WKYMVm) [14]: 75.6%
- receptor internalization (flow cytometry): Log EC50 (M) [14]: -6.96 log M
- receptor internalization (flow cytometry): Emax (% of 1 μM WKYMVm) [15]: 101%
- receptor internalization (flow cytometry): Emax (% of 1 μM WKYMVm) [16]: 82.3%
- Log IC50 [17]: -5.55 log M
- Max Comp (%) [17]: 85.4%
- Log IC50 [18]: -6.23 log M
- Max Comp (%) [18]: 100%
- Max Comp (%) [19]: 94.9%
- Max Comp (%) [20]: 99.8%
